Experimental data as given in patent publication US20130217572A1, “SPECIFIC DELIVERY OF AGROCHEMICALS” (VRIJE UNIVERSITEIT BRUSSEL, priority 2010, published 2013).

What was measured:
potato lectin (Sigma) [1] = target: T1, potato lectin (Sigma) (potato, UniProt Q9S8M0 23-323); experiment: microcapsule retention; L: amine capsules, BS3 two-step, 0.1 ug VHH/cm2; potato lectin coat 10 ug/ml; 10% coverage
T1 construct: Bought glycoprotein, coated on ELISA plates
T1 sequence (looked up): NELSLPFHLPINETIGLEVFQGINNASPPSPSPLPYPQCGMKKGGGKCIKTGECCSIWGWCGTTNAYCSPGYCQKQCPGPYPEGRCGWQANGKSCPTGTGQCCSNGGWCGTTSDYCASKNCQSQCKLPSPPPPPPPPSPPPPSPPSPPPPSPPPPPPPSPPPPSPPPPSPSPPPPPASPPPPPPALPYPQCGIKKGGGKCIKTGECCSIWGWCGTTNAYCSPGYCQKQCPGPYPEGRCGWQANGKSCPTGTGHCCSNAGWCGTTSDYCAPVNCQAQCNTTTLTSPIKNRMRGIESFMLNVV

potato lectin (Sigma) [2] = target: T1, potato lectin (Sigma); experiment: microcapsule retention; C: carboxyl capsules, EDC/Sulfo-NHS, 1 ug VHH/cm2; potato lectin coat 1 ug/ml; 100% coverage
potato lectin (Sigma) [3] = target: T1, potato lectin (Sigma); experiment: microcapsule retention; G: amine capsules, BS3 one-step, 1 ug VHH/cm2; potato lectin coat 100 ug/ml; 100% coverage
potato lectin (Sigma) [4] = target: T1, potato lectin (Sigma); experiment: microcapsule retention; C: carboxyl capsules, EDC/Sulfo-NHS, 1 ug VHH/cm2; potato lectin coat 10 ug/ml; 10% coverage
potato lectin (Sigma) [5] = target: T1, potato lectin (Sigma); experiment: microcapsule retention; K: amine capsules, BS3 two-step, 1 ug VHH/cm2; potato lectin coat 100 ug/ml; 10% coverage
potato lectin (Sigma) [6] = target: T1, potato lectin (Sigma); experiment: microcapsule retention; D: carboxyl capsules, EDC/Sulfo-NHS, 0.1 ug VHH/cm2; potato lectin coat 1 ug/ml; 100% coverage
potato lectin (Sigma) [7] = target: T1, potato lectin (Sigma); experiment: microcapsule retention; H: amine capsules, BS3 one-step, 0.1 ug VHH/cm2; potato lectin coat 1 ug/ml; 10% coverage
unrelated antigens [8] = experiment: VHH-coupled Uvitex microcapsules retained on wells coated with unrelated antigen; 100% surface coverage
potato lectin (Sigma) [9] = target: T1, potato lectin (Sigma); experiment: VHH-coupled Uvitex microcapsules on potato lectin-coated wells; 25-fold less microcapsules applied
Experimental: An ELISA-like assay was performed using high bind half area microplates (Greiner Bio-One) coated with 5 μg/well potato lectin. Control wells included blank wells or wells coated with unrelated antigens. Plates were washed three times with PBS with 0.05%-TWEEN®-20 and blocked with 5% skimmed milk in PBS for 1 to 2 hours. VHH-coupled Uvitex-containing microcapsules were diluted to appropriate densities in 1% skimmed milk in PBS with 0.05%-TWEEN®-20. Five-fold serial dilution series were prepared and allowed to bind to the surface to compare binding of microcapsules coupled with monovalent or bivalent VHH. Microcapsules were added to the antigen-coated or control wells and allowed to bind for 1 hour. Unbound microcapsules were removed by washing five times with PBS with 0.05%-TWEEN®-20. The bottoms of ELISA plate wells were analyzed for bound microcapsules on a macrozoom microscope system (Nikon). Microcapsules were counted using Volocity image analysis software (Perkin Elmer). A DAPI filter was used to visualize Uvitex microcapsules.
The surface area of microcapsules with coupled bivalent VHH was 15-fold above the surface area of blank microcapsules applied at this microcapsule density while the surface area of microcapsules with monovalent VHH was only six-fold above the surface area of blank microcapsules applied at this microcapsule density. […]

unrelated antigens [10] = experiment: VHH-coupled Uvitex microcapsules retained on wells coated with unrelated antigen; 20% surface coverage
gum arabic = experiment: VHH binding to gum arabic in ELISA; design: species or system acacia tree
Experimental: Titration of VHH antibody fragments was performed on ELISA plates (Maxisorp, Nunc) coated with 100 μl per well 100 μg/ml gum arabic in 50 mM carbonate pH9.6. Plates were coated at 4° C. overnight and coating was continued at room temperature for 1 hour on the next day. Plates were washed three times with PBS/0.05%-TWEEN®-20 and blocked with 5% skimmed milk in PBS for 1 hour. Four-fold serial dilutions of purified VHH antibody fragments were prepared in 1% MPBS/0.05%-TWEEN®-20 in polypropylene 96-well plates. Antibody concentrations ranged from 3 μg/ml to 12 ng/ml. Antibody dilutions were transferred to the gum arabic-coated plates and VHH antibody fragments were allowed to bind for 1 hour at room temperature. Bound VHH were detected with sequential incubations with monoclonal mouse anti-histidine antibodies (Abd Serotec) and rabbit anti-mouse IgG whole molecule antibodies conjugated with alkaline phosphatase (RaM/AP) (Sigma) in 1% MPBS/0.05%-TWEEN®-20. Unbound antibodies were removed by washing three times with PBS/0.05%-TWEEN®-20 after each antibody incubation. The plates were washed an additional two times with PBS and 100 μl pNPP disodium hexahydrate substrate (Sigma) was added to each well. The absorbance at 405 nm was measured and plotted as function of antibody concentration (see Table 1).

unrelated antigens [11] = experiment: VHH-coupled Uvitex OB microcapsules retained on wells coated with unrelated antigen; 4% surface coverage
unrelated antigens [12] = experiment: VHH-coupled Uvitex OB microcapsules retained on wells coated with unrelated antigen; 20% surface coverage

Row | Molecule | microcapsule counts (microcapsules) (potato lectin (Sigma) [1]) | microcapsule counts (microcapsules) (potato lectin (Sigma) [2]) | microcapsule counts (microcapsules) (potato lectin (Sigma) [3]) | microcapsule counts (microcapsules) (potato lectin (Sigma) [4]) | microcapsule counts (microcapsules) (potato lectin (Sigma) [5]) | microcapsule counts (microcapsules) (potato lectin (Sigma) [6]) | microcapsule counts (microcapsules) (potato lectin (Sigma) [7]) | surface area of bound microcapsules (unrelated antigens [8]) | fold of surface area above blank microcapsules (potato lectin (Sigma) [9]) [fold] | surface area of bound microcapsules (unrelated antigens [10]) | absorbance at 405 nm (gum arabic; Table 2, gum arabic coat, VHH 3 μg/ml) | absorbance at 405 nm (gum arabic; [VHH] 0.0117188 μg/ml (0.78125 nM), gum arabic 100 μg/ml) | absorbance at 405 nm (gum arabic; [VHH] 0.04688 μg/ml (3.125 nM), gum arabic 100 μg/ml) | absorbance at 405 nm (gum arabic; [VHH] 0.1875 μg/ml (12.5 nM), gum arabic 100 μg/ml) | absorbance at 405 nm (gum arabic; [VHH] 0.75 μg/ml (50 nM), gum arabic 100 μg/ml) | absorbance at 405 nm (gum arabic; [VHH] 3 μg/ml (200 nM), gum arabic 100 μg/ml) | absorbance at 405 nm (gum arabic; [VHH] 3 μg/ml (200 nM), no gum arabic coat (−)) | area of bound microcapsules (unrelated antigens [11]) | area of bound microcapsules (unrelated antigens [12])
1 | Control VHH | 186 | 193 | 150 | 50 | 285 | 227 | 36 | – | – | – | – | – | – | – | – | – | – | – | –
2 | VHH 3E6 (VHH, also called Monovalent VHH 3E6) VHH: QVQLQESGGGLVQPGGTLSLSCAASGFNVRWYGMGWFRQAPGKEREGVACISALQETTAYADSVKGRFTLSRDNPKNTLSLQMNNLQPEDTGVYYCATTDCDDSSRMTYTSYLGQGTQVTVSS | – | – | – | – | – | – | – | 69.5 | 6 | 27.7 | 0.882 | 0.392 | 0.905 | 1.518 | 1.904 | 2.154 | 0.090 | 23.5 | 47.9
